13 molecules from patent US12624112 (MABWELL SHANGHAI BIOSCIENCE, dated 2026) can be followed below.

Residue numbers refer to the chain shown, from its start.

First the molecules themselves.
T1: ST2 on the effector cells (KU812, KU812/NF-κB-1#, HUVEC, HMC-1) (human, UniProt Q01638 19-556)
T1 sequence (looked up): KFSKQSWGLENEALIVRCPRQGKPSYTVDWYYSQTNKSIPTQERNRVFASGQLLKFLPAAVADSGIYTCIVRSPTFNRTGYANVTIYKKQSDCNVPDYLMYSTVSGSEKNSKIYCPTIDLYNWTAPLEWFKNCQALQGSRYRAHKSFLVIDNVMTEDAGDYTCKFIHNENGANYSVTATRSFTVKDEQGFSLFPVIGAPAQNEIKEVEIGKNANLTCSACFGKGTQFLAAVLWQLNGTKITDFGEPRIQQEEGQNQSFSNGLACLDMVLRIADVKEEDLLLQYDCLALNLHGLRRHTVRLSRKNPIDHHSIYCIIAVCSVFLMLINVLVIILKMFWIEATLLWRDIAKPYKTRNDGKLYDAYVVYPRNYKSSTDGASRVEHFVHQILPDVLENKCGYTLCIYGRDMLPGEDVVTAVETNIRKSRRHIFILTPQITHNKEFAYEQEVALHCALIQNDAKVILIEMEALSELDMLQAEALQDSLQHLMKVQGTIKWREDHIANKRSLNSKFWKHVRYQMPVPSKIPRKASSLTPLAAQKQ

T2: Human ST2-his (human, UniProt Q01638-2 19-328, limits assumed)
T2 construct: Expressed in CHO-K1; The printed range starts at Met1; also called human ST2 fused with a 6-histidine tag at the C-terminus
T2 sequence: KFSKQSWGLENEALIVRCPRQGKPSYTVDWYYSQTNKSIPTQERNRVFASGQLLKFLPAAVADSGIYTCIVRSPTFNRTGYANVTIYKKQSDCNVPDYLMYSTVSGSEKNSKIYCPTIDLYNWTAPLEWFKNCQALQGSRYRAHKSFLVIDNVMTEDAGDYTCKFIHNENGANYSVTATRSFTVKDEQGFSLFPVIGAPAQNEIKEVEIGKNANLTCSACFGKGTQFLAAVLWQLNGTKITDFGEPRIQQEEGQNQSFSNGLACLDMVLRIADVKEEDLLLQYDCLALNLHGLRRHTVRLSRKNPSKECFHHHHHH

B1: 5886-156-H1L1 (antibody, human IgG4 S228P, kappa, V domains shown)
VH: QVQLQESGPGLVKPSQTLSLTCTVSGYSITSDYAWNWIRQPPGKGLEWIGYIDYSGSTTYNPSLKSRVTISRDTSKNQFSLKLSSVTAADTAVYYCASTVIDSMDYWGQGTLVTVSS
VL: DIVLTQSPASLAVSPGQRATITCRASKSVSTSGHSYMHWYQQKPGQPPKLLIYLASNLESGVPARFSGSGSGTDFTLTINPVEANDAANYYCQHSREFPFTFGQGTKVEIKR
notes: Humanized antibody
B2: 5888-153-H1L1 (antibody, human IgG4 S228P, kappa, V domains shown)
VH: QVQLVQSGAEVKKPGASVKVSCKASGYTFTDYELHWVRQAPGQGLEWMGTIDPETGDTVYNQKFKARVTMTADKSTSTAYMELSSLRSEDTAVYYCTRAFYNDYDDGFAYWGQGTLVTVSS
VL: EIVMTQSPATLSLSPGERATLSCSVSSSVSYMHWYQQKPGQAPRRLIYDTSKLASGIPARFSGSGSGTDYTLTISSLEPEDAAVYYCQQWNSSPLTFGGGTKVEIKR
B3: 5888-153-H1L2 (antibody, human IgG4 S228P, kappa, V domains shown)
VH: B2 VH
VL: B2 VL with S92T
B4: 5887-537-H1L0 (antibody, human IgG4 S228P, kappa, V domains shown)
VH: QVTLKESGPTLVKPTQTLTLTCTFSGFSLSTSGMGVGWIRQPPGKALEWLAHIWWDDVKQYNPALKSRLTITKDTSKSQVVLTMTNMDPVDTATYYCARIGGDYDYFDFWGQGTTVTVSS
VL: DIVLTQSPASLAVSPGQRATITCRASESVEYSGTSLMQWYQQKPGQPPKLLIYVASNVESGVPARFSGSGSGTDFTLTINPVEANDTANYYCQQSRKVPWTFGQGTKLEIKR
B5: 5888-153-H0L0 (antibody, human IgG4 S228P, kappa, V domains shown)
VH: B2 VH with A72R, K74T, A79V, T97A
VL: B2 VL with M4L, R45L, Y70F, A82F
B6: 5888-153-H0L2 (antibody, human IgG4 S228P, kappa, V domains shown)
VH: B2 VH with A72R, K74T, A79V, T97A
VL: B2 VL with S92T
B7: 5888-379-H0L0 (antibody, human IgG4 S228P, kappa, V domains shown)
VH: QVQLVQSGAEVKKPGASVKVSCKASGYTFINYGMNWVRQAPGQRLEWMGWINTYIGEPTYGDNFKGRVTITRDTSASTAYMELSSLRSEDTAVYYCAREGDGFAYWGQGTLVTVSS
VL: DIQMTQSPSSLSASVGDRVTITCKSSQSLLYSGNQNNYLAWYQQKPGKVPKLLIYGASTRESGVPSRFSGSGSGTDFTLTISSLQPEDVATYYCQNDHSYPYTFGGGTKVEIKR
B8: 5888-379-H1L1 (antibody, human IgG4 S228P, kappa, V domains shown)
VH: B7 VH with D101E
VL: B7 VL with V89L
B9: 5887-41-H1L1 (antibody, human IgG4 S228P, kappa, V domains shown)
VH: B1 VH with N36D, D53R, S57D, T59Y, S98T, V100M, I101M, S103T
VL: B1 VL with H34N, F100L, V108L
B10: 5888-116-H1L1 (antibody, human IgG4 S228P, kappa, V domains shown)
VH: B2 VH with Y32S, L34M, H35Y, T50A, V59A, Y60F, A66G, Y101D, Y104N, L116M
VL: DIQMTQSPSSLSASVGDRVTITCSASSSVNYMHWYQQKPGKAPKRLIYDTSKLASGVPSRFSGSGSGTDYTFTISSLQPEDAATYYCQQWSSNPLTFGQGTKLEIKR
B11: 5888-153-H1L0 (antibody, human IgG4 S228P, kappa, V domains shown)
VH: B2 VH
VL: B2 VL with M4L, R45L, Y70F, A82F
B12: 5888-357-H1L1 (antibody, human IgG4 S228P, kappa, V domains shown)
VH: B2 VH with T28R, Y32S, L34M, D57G, A66G, K74R, A79V, Y104F, L116M
VL: B2 VL with V25A, S27T, N91S, S93N
B13: 5888-116-H3L1 (antibody, human IgG4 S228P, kappa, V domains shown)
VH: QVQLVQSGAEVKKPGASVKVSCKASGYTFTDSEMYWVRQAPGQGLEWMGAIDPETGDTAFNQKFKGRVTMTADKSTSTAYMELSSLRSEDTAVYYCTRAFDNDNDDAFAYWGQGTMVTVSS
VL: B10 VL

The target of the first experiment is T1, ST2 on the effector cells (KU812, …). The experiment is described as follows: cell-based or functional assay.
B1: the “IC50, inhibition of KU812-IL5 production promoted by IL-33 (human IL33-his)” value was determined as 0.0289 µg/mL; the “Maximum inhibition rate, KU812-IL5 production by IL-33” value was 95%; the “Relative activity compared with CNTO7160, KU812-IL5 production by IL-33” value was 222%.

A further experiment has the same target. The experiment is described as follows: cell-based or functional assay. This is another data set of the same source.
Turning to B2, the “IC50, inhibition of activation of KU812-NF-κB reporter gene by IL33” value amounted to 0.0124 µg/mL; the “Maximum inhibition rate, KU812-NF-κB reporter gene” value came out at 91.4%; the “Relative activity compared with CNTO7160, KU812-NF-κB reporter gene” value was determined as 1620%.
In the case of B3, the “IC50, inhibition of activation of KU812-NF-κB reporter gene by IL33” value is 0.0441 µg/mL; the “Maximum inhibition rate, KU812-NF-κB reporter gene” value turned out to be 85%; the “Relative activity compared with CNTO7160, KU812-NF-κB reporter gene” value was determined as 454%.

In the next experiment the target is Human ST2-fc (human) (UniProt Q01638). The experiment is described as follows: competition ELISA, coated ST2-fc, competitor IL33-his. In general terms: ELISA stands for enzyme-linked immunosorbent assay.
As to B4, the IC50 is 0.0882 µg/mL, the Maximum inhibition rate was determined as 88.3% and the Relative activity compared with CNTO7160 was 1210%.
The like results for B5 were, in that order, 2.57 µg/mL, 92.9% and 44.3%.
For B6, the IC50 was determined as 0.474 µg/mL, the Maximum inhibition rate came to 93.5% and the Relative activity compared with CNTO7160 was 240%.
Take B7: the IC50 worked out at 0.488 µg/mL, the Maximum inhibition rate stood at 90.5% and the Relative activity compared with CNTO7160 came out at 180%.
The like results for B8 were, in that order, 0.317 µg/mL, 89.5% and 276%.
Turning to B1, the half-maximal inhibitory concentration (IC50) was 1 µg/mL, the Maximum inhibition rate was 88% and the Relative activity compared with CNTO7160 amounted to 125%.
The like results for B9 were, in that order, 2.23 µg/mL, 92.4% and 56.2%.
For B10, the IC50 was determined as 0.486 µg/mL, the Maximum inhibition rate worked out at 94.9% and the Relative activity compared with CNTO7160 is 219%.
On to B11, for which the IC50 is 1.32 µg/mL, the Maximum inhibition rate turned out to be 92.5% and the Relative activity compared with CNTO7160 was determined as 86.2%.
As to B2, the concentration for half-maximal inhibition (IC50) turned out to be 0.624 µg/mL, the Maximum inhibition rate came to 93.8% and the Relative activity compared with CNTO7160 worked out at 183%.
With B12, the IC50 came to 0.49 µg/mL, the Maximum inhibition rate was 93.2% and the Relative activity compared with CNTO7160 was determined as 257%.
For B3 the same measures were 0.852 µg/mL, 94% and 134%.
For B13 the same measures were 0.611 µg/mL, 90.7% and 187%.

The target in a further experiment is T2, Human ST2-his. The experiment is described as follows: SPR Biacore X100, antibody captured on protein A chip, human ST2-his injected, pH 7.4. The protocol:
The experiment on the interaction between the anti-human ST2 antibodies and human ST2-his was performed using Biacore X100.
Each anti-human ST2 antibody was diluted to 2 µg/mL and captured on the surface of a protein A chip for a capture time of 60 s. Following the antibody capture, a solution of human ST2-his (2-fold gradient dilution from a starting concentration of 20 nM, to obtain 6 concentrations in total) was injected. Association was monitored for 180 s and dissociation was monitored for 700 s, and the sensor surface was regenerated by injecting a solution of glycine at pH 2.0. Kinetic data were analyzed using a simple 1:1 binding model.
(In general: In SPR one partner is held on a chip, and binding of the other changes the refractive index at the surface.)
With B1, the Kd was found to be 0.261 nM, the off-rate (koff) came out at 0.000377 s⁻¹ and the kon is 1.45e+06 M⁻¹ s⁻¹.

For orientation: IC50 means the concentration that gives 50% inhibition. Low values mean higher potency, high ones lower potency. As usually defined, the Kd is the free concentration of one partner at which half of the binding sites on the other are occupied at equilibrium, for simple one-to-one binding. A low value points to higher affinity. As usually defined, the koff is a measure of how fast the partners let go of each other. For orientation: kon means a measure of how fast the partners come together. Higher therefore signals fast association.
